Laboratory results taken from IntAct's records for PubMed 29892012.

B1: Forkhead box protein P3 (Homo sapiens), Q9BZS1 (parent)
chain: MPNPRPGKPSAPSLALGPSPGASPSWRAAPKASDLLGARGPGGTFQGRDLRGGAHASSSSLNPMPPSQLQLPTLPLVMVAPSGARLGPLPHLQALLQDRPHFMHQLSTVDAHARTPVLQVHPLESPAMISLTPPTTATGVFSLKARPGLPPGINVASLEWVSREPALLCTFPNPSAPRKDSTLSAVPQSSYPLLANGVCKWPGCEKVFEEPEDFLKHCQADHLLDEKGRAQCLLQREMVQSLEQQLVLEKEKLSAMQAHLAGKMALTKASSVASSDKGSCCIVAAGSQGPVVPAWSGPREAPDSLFAVRRHLWGSHGNSTFPEFLHNMDYFKFHNMRPPFTYATLIRWAILEAPEKQRTLNEIYHWFTRMFAFFRNHPATWKNAIRHNLSLHKCFVRVESEKGAVWTVDELEFRKKRSQRPSRCSNPTPGP
B2: AP-1 complex subunit sigma-2 (Homo sapiens), P56377 (parent)
chain: MQFMLLFSRQGKLRLQKWYVPLSDKEKKKITRELVQTVLARKPKMCSFLEWRDLKIVYKRYASLYFCCAIEDQDNELITLEIIHRYVELLDKYFGSVCELDIIFNFEKAYFILDEFLLGGEVQETSKKNVLKAIEQADLLQEEAETPRSVLEEIGLT
B3: Late cornified envelope protein 1B (Homo sapiens), Q5T7P3 (parent)
chain: MSCQQNQQQCQPPPKCIPKCPPKCLTPRCPPKCPPKCPPVSSCCSVSSGGCCGSSSGGSCGSSSGGCCSSGGGGCCLSHHRRRRSHCHRPQSSGCCSQPSGGSSCCGGGSGQHSGGCC
partner: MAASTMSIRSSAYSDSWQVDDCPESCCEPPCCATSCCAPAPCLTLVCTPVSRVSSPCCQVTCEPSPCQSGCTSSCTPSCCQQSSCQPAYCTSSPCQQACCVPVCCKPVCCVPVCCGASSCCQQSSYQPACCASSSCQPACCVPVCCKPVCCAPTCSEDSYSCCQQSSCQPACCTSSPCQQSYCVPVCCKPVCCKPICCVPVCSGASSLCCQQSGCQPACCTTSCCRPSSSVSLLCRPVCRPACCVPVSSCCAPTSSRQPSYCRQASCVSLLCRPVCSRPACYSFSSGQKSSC
B4: Peripheral plasma membrane protein CASK (Homo sapiens), O14936 (parent)
chain: MADDDVLFEDVYELCEVIGKGPFSVVRRCINRETGQQFAVKIVDVAKFTSSPGLSTEDLKREASICHMLKHPHIVELLETYSSDGMLYMVFEFMDGADLCFEIVKRADAGFVYSEAVASHYMRQILEALRYCHDNNIIHRDVKPHCVLLASKENSAPVKLGGFGVAIQLGESGLVAGGRVGTPHFMAPEVVKREPYGKPVDVWGCGVILFILLSGCLPFYGTKERLFEGIIKGKYKMNPRQWSHISESAKDLVRRMLMLDPAERITVYEALNHPWLKERDRYAYKIHLPETVEQLRKFNARRKLKGAVLAAVSSHKFNSFYGDPPEELPDFSEDPTSSGLLAAERAVSQVLDSLEEIHALTDCSEKDLDFLHSVFQDQHLHTLLDLYDKINTKSSPQIRNPPSDAVQRAKEVLEEISCYPENNDAKELKRILTQPHFMALLQTHDVVAHEVYSDEALRVTPPPTSPYLNGDSPESANGDMDMENVTRVRLVQFQKNTDEPMGITLKMNELNHCIVARIMHGGMIHRQGTLHVGDEIREINGISVANQTVEQLQKMLREMRGSITFKIVPSYRTQSSSCERDSPSTSRQSPANGHSSTNNSVSDLPSTTQPKGRQIYVRAQFEYDPAKDDLIPCKEAGIRFRVGDIIQIISKDDHNWWQGKLENSKNGTAGLIPSPELQEWRVACIAMEKTKQEQQASCTWFGKKKKQYKDKYLAKHNAVFDQLDLVTYEEVVKLPAFKRKTLVLLGAHGVGRRHIKNTLITKHPDRFAYPIPHTTRPPKKDEENGKNYYFVSHDQMMQDISNNEYLEYGSHEDAMYGTKLETIRKIHEQGLIAILDVEPQALKVLRTAEFAPFVVFIAAPTITPGLNEDESLQRLQKESDILQRTYAHYFDLTIINNEIDETIRHLEEAVELVCTAPQWVPVSWVY
partner: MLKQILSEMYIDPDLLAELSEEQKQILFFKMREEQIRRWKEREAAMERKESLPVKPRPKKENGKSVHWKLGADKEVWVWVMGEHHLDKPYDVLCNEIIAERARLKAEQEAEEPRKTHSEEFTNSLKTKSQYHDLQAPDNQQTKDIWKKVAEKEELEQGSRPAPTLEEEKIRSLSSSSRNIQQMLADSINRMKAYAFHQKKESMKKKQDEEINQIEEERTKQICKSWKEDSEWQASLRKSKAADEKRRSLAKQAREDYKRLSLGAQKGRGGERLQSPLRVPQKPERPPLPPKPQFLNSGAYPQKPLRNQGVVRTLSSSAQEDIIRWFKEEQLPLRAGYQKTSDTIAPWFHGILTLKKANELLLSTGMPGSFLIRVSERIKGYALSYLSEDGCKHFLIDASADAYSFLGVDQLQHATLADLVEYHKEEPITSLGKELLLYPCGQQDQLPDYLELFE
B5: ADP/ATP translocase 3 (Homo sapiens), P12236 (parent)
chain: MTEQAISFAKDFLAGGIAAAISKTAVAPIERVKLLLQVQHASKQIAADKQYKGIVDCIVRIPKEQGVLSFWRGNLANVIRYFPTQALNFAFKDKYKQIFLGGVDKHTQFWRYFAGNLASGGAAGATSLCFVYPLDFARTRLAADVGKSGTEREFRGLGDCLVKITKSDGIRGLYQGFSVSVQGIIIYRAAYFGVYDTAKGMLPDPKNTHIVVSWMIAQTVTAVAGVVSYPFDTVRRRMMMQSGRKGADIMYTGTVDCWRKIFRDEGGKAFFKGAWSNVLRGMGGAFVLVLYDELKKVI
B6: RNA-binding protein 3 (Homo sapiens), P98179 (parent)
chain: MSSEEGKLFVGGLNFNTDEQALEDHFSSFGPISEVVVVKDRETQRSRGFGFITFTNPEHASVAMRAMNGESLDGRQIRVDHAGKSARGTRGGGFGAHGRGRSYSRGGGDQGYGSGRYYDSRPGGYGYGYGRSRDYNGRNQGGYDRYSGGNYRDNYDN
partner: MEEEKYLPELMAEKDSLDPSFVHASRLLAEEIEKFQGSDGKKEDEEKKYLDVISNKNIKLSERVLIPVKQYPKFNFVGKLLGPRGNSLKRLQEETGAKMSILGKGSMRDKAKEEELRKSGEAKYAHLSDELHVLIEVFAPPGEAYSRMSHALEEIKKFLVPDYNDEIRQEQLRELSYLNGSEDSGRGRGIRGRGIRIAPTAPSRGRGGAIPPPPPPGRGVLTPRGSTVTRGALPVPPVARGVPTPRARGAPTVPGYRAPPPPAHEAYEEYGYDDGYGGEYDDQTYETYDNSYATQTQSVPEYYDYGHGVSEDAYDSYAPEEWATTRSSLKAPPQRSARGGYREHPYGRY
B7: Late cornified envelope protein 1B (Homo sapiens), Q5T7P3 (parent)
chain: B3 chain

Variants of: B1
Conditions: with pr20e_human PRR20E
With MPNPRPGKPSAPSLALGPSPGASPSWRAAPKASDLLGARGPGGTFQGRDLRGGAHASSSSLNPMPPSQLQLPTLPLVMVAPSGARLGPLPHLQALLQDRPHFMHQLSMVDAHARTPVLQVHPLESPAMISLTPPTTATGVFSLKARPGLPPGINVASLEWVSREPALLCTFPNPSAPRKDSTLSAVPQSSYPLLANGVCKWPGCEKVFEEPEDFLKHCQADHLLDEKGRAQCLLQREMVQSLEQQLVLEKEKLSAMQAHLAGKMALTKASSVASSDKGSCCIVAAGSQGPVVPAWSGPREAPDSLFAVRRHLWGSHGNSTFPEFLHNMDYFKFHNMRPPFTYATLIRWAILEAPEKQRTLNEIYHWFTRMFAFFRNHPATWKNAIRHNLSLHKCFVRVESEKGAVWTVDELEFRKKRSQRPSRCSNPTPGP [T108M] the “effect of a mutation on the interaction” value was “with no effect”.

Variants of: B1
Conditions: with rbpms_human RBPMS
With MPNPRPGKPSAPSLALGPSPGASPSWRAAPKASDLLGARGPGGTFQGRDLRGGAHASSSSLNPMPPSQLQLPTLPLVMVAPSGARLGPLPHLQALLQDRPHFMHQLSMVDAHARTPVLQVHPLESPAMISLTPPTTATGVFSLKARPGLPPGINVASLEWVSREPALLCTFPNPSAPRKDSTLSAVPQSSYPLLANGVCKWPGCEKVFEEPEDFLKHCQADHLLDEKGRAQCLLQREMVQSLEQQLVLEKEKLSAMQAHLAGKMALTKASSVASSDKGSCCIVAAGSQGPVVPAWSGPREAPDSLFAVRRHLWGSHGNSTFPEFLHNMDYFKFHNMRPPFTYATLIRWAILEAPEKQRTLNEIYHWFTRMFAFFRNHPATWKNAIRHNLSLHKCFVRVESEKGAVWTVDELEFRKKRSQRPSRCSNPTPGP [T108M] the “effect of a mutation on the interaction” value was “with no effect”.

Variants of: B2
Conditions: with ap1g1_human AP1G1, O43747
Chain of ap1g1_human AP1G1, O43747 (O43747 whole entry): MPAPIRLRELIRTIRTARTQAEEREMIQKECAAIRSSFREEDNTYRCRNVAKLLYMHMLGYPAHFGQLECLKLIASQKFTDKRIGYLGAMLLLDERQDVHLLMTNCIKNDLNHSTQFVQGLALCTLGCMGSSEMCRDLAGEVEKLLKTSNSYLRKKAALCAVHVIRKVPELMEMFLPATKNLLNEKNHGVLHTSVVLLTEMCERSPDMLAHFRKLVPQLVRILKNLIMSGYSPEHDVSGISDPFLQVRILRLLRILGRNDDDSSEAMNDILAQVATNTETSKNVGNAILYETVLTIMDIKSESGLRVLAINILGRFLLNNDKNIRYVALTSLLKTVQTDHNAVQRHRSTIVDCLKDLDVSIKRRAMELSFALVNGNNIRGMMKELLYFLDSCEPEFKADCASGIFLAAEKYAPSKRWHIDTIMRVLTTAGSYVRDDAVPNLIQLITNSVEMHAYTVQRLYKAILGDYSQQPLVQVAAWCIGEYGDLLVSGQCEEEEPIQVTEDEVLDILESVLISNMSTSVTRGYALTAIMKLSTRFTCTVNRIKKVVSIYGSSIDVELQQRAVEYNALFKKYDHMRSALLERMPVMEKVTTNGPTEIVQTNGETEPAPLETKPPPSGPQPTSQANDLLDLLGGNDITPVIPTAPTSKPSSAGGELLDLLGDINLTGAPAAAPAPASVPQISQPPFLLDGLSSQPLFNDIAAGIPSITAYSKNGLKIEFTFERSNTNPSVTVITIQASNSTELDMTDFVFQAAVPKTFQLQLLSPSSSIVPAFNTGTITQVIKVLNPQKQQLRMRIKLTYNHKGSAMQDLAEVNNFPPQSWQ
With MQFMLLFSCQGKLRLQKWYVPLSDKEKKKITRELVQTVLARKPKMCSFLEWRDLKIVYKRYASLYFCCAIEDQDNELITLEIIHRYVELLDKYFGSVCELDIIFNFEKAYFILDEFLLGGEVQETSKKNVLKAIEQADLLQEEAETPRSVLEEIGLT the “effect of a mutation on the interaction” value was “with no effect”.

Variants of: B3
Conditions: with kr109_human KRTAP10-9, P60411
With MSCQQNQQQCQPPPKYIPKCPPKCLTPRCPPKCPPKCPPVSSCCSVSSGGCCGSSSGGSCGSSSGGCCSSGGGGCCLSHHRRRRSHCHRPQSSGCCSQPSGGSSCCGGGSGQHSGGCC the “effect of a mutation on the interaction” value was “disrupting interaction strength”.

Variants of: B4
Conditions: with sh24a_human SH2D4A
With G197R the “effect of a mutation on the interaction” value was “with no effect”.

Variants of: B5
Conditions: with ap2b1_human AP2B1, P63010
Chain of ap2b1_human AP2B1, P63010 (P63010 whole entry): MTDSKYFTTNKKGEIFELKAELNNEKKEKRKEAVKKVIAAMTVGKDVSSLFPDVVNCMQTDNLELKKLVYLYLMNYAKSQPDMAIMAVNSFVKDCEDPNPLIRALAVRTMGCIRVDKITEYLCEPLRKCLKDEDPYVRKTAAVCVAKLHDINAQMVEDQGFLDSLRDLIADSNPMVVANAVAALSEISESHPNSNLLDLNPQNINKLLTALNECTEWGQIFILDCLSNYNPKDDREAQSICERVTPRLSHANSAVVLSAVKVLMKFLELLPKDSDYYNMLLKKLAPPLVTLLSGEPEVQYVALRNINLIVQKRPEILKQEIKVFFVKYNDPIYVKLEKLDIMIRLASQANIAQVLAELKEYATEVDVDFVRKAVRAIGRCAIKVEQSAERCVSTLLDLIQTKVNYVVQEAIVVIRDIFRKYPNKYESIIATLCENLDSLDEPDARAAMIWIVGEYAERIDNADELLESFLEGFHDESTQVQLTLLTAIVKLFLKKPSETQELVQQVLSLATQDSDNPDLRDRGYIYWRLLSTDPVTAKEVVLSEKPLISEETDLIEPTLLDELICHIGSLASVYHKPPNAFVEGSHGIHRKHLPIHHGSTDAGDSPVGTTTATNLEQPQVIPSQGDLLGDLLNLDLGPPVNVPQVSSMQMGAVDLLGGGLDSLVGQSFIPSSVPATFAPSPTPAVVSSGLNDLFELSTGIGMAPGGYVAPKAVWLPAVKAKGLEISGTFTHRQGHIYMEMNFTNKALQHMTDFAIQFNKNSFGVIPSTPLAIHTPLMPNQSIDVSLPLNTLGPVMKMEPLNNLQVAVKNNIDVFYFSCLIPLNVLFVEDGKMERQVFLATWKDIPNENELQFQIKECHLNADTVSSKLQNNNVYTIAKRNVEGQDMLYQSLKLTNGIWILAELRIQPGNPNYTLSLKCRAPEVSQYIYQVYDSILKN
MTEQAISFAKDFLAGGIAAAISKTAVAPIERVKLLLQVQHASKQIAADKQYKGIVDCIVRIPKEQGVLSFWRGNLANVIRYFPTQALNFAFKDKYKQIFLGGVDKHTQFWRYFAGNLASGGAAGATSLCFVYPLDFARTRLAADVGKSGTEREFRGLGDCLVKITKSDGIRGLYQGFSVSVQGIIIYRAAYFGVYDTAKGMLPDPKNTHIVVSWMIAQTVMAVAGVVSYPFDTVRRRMMMQSGRKGADIMYTGTVDCWRKIFRDEGGKAFFKGAWSNVLRGMGGAFVLVLYDELKKVI [T221M] was tested, and the “effect of a mutation on the interaction” value was “with no effect”.

Variants of: B6
Conditions: with khdr2_human KHDRBS2, Q5VWX1
MSSEEGKLFVGGLNFNTDEQALEDHFSSFGPISEVVVVKDRETQRSRGFGFITFTNPEHASVAMRAMNGESLDGRQIRVDHAGKSARGTRGGGFGAHGRGRSYSRGGGDQGYGSGRYYDSRPGGYGYGYGRSRDYNGRNQGGYDHYSGGNYRDNYDN was tested, and the “effect of a mutation on the interaction” value was “with no effect”.

Variants of: B7
Conditions: with kr108_human KRTAP10-8, P60410
Chain of kr108_human KRTAP10-8, P60410 (P60410 whole entry): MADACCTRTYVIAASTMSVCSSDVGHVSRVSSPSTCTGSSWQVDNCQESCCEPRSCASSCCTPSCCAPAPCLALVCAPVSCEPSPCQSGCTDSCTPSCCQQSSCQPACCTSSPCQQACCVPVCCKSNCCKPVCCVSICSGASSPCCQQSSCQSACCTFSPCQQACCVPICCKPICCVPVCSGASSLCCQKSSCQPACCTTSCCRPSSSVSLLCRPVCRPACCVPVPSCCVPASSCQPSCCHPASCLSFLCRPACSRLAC
With MSCQQNQQQCQPPPKYIPKCPPKCLTPRCPPKCPPKCPPVSSCCSVSSGGCCGSSSGGSCGSSSGGCCSSGGGGCCLSHHRRRRSHCHRPQSSGCCSQPSGGSSCCGGGSGQHSGGCC the “effect of a mutation on the interaction” value was “disrupting interaction strength”.

Variants of: B7
Conditions: with kr103_human KRTAP10-3, P60369
Chain of kr103_human KRTAP10-3, P60369 (P60369 whole entry): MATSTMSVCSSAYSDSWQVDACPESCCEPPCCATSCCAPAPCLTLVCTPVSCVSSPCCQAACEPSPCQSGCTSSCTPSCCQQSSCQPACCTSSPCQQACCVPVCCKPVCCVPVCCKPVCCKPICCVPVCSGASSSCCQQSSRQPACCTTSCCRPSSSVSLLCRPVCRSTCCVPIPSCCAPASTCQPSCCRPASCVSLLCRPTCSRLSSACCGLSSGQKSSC
With MSCQQNQQQCQPPPKYIPKCPPKCLTPRCPPKCPPKCPPVSSCCSVSSGGCCGSSSGGSCGSSSGGCCSSGGGGCCLSHHRRRRSHCHRPQSSGCCSQPSGGSSCCGGGSGQHSGGCC the “effect of a mutation on the interaction” value was “disrupting interaction strength”.

Variants of: B7
Conditions: with kr101_human KRTAP10-1, P60331
Chain of kr101_human KRTAP10-1, P60331 (P60331 whole entry): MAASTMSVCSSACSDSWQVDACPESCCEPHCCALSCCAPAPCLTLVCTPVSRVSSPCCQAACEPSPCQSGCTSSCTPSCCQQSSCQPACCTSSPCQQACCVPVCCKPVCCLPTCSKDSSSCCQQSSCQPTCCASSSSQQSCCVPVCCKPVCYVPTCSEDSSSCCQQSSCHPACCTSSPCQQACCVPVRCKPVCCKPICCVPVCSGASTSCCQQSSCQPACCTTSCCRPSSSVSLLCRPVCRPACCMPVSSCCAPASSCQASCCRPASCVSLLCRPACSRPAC
In the case of MSCQQNQQQCQPPPKYIPKCPPKCLTPRCPPKCPPKCPPVSSCCSVSSGGCCGSSSGGSCGSSSGGCCSSGGGGCCLSHHRRRRSHCHRPQSSGCCSQPSGGSSCCGGGSGQHSGGCC, the “effect of a mutation on the interaction” value is reported as “with no effect”.

Variants of: B7
Conditions: with hxa1_human HOXA1, P49639
Chain of hxa1_human HOXA1, P49639 (P49639 whole entry): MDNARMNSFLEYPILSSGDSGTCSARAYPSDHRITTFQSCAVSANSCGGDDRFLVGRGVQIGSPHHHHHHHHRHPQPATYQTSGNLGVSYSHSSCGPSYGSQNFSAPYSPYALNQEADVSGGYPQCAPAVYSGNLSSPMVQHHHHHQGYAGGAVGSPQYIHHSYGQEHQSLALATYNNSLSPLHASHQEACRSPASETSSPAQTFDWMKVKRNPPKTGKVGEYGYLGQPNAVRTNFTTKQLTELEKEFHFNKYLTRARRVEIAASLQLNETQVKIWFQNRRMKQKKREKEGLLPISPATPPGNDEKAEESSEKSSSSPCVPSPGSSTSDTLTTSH
For MSCQQNQQQCQPPPKYIPKCPPKCLTPRCPPKCPPKCPPVSSCCSVSSGGCCGSSSGGSCGSSSGGCCSSGGGGCCLSHHRRRRSHCHRPQSSGCCSQPSGGSSCCGGGSGQHSGGCC, the “effect of a mutation on the interaction” value was “with no effect”.

Variants of: B7
Conditions: with kr105_human KRTAP10-5, P60370
Chain of kr105_human KRTAP10-5, P60370 (P60370 whole entry): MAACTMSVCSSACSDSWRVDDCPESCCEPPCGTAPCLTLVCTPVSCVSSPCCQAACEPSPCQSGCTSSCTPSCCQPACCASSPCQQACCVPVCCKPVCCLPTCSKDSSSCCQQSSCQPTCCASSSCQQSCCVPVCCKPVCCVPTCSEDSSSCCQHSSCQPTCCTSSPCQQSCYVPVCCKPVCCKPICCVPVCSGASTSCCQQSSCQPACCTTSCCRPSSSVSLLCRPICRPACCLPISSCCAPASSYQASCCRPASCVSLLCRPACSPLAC
In the case of MSCQQNQQQCQPPPKYIPKCPPKCLTPRCPPKCPPKCPPVSSCCSVSSGGCCGSSSGGSCGSSSGGCCSSGGGGCCLSHHRRRRSHCHRPQSSGCCSQPSGGSSCCGGGSGQHSGGCC, the “effect of a mutation on the interaction” value is reported as “disrupting interaction strength”.

Variants of: B7
Conditions: with mdfi_human MDFI
For MSCQQNQQQCQPPPKYIPKCPPKCLTPRCPPKCPPKCPPVSSCCSVSSGGCCGSSSGGSCGSSSGGCCSSGGGGCCLSHHRRRRSHCHRPQSSGCCSQPSGGSSCCGGGSGQHSGGCC, the “effect of a mutation on the interaction” value was “disrupting interaction strength”.

Variants of: B7
Conditions: with otx1_human OTX1, P32242
Chain of otx1_human OTX1, P32242 (P32242 whole entry): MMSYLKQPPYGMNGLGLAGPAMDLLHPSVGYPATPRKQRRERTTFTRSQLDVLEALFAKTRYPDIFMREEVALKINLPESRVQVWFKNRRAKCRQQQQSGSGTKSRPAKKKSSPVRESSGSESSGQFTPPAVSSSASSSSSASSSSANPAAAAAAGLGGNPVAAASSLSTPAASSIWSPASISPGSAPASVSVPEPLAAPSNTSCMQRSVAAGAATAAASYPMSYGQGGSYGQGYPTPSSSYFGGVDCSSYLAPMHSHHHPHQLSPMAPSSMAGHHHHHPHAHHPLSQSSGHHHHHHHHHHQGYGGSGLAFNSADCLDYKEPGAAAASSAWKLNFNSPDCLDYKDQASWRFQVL
With MSCQQNQQQCQPPPKYIPKCPPKCLTPRCPPKCPPKCPPVSSCCSVSSGGCCGSSSGGSCGSSSGGCCSSGGGGCCLSHHRRRRSHCHRPQSSGCCSQPSGGSSCCGGGSGQHSGGCC the “effect of a mutation on the interaction” value was “with no effect”.

Variants of: B7
Conditions: with kra32_human KRTAP3-2, Q9BYR7
Chain of kra32_human KRTAP3-2, Q9BYR7 (Q9BYR7 whole entry): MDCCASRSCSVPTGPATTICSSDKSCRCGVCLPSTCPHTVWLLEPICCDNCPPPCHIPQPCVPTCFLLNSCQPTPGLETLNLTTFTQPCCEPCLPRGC
MSCQQNQQQCQPPPKYIPKCPPKCLTPRCPPKCPPKCPPVSSCCSVSSGGCCGSSSGGSCGSSSGGCCSSGGGGCCLSHHRRRRSHCHRPQSSGCCSQPSGGSSCCGGGSGQHSGGCC was tested, and the “effect of a mutation on the interaction” value was “with no effect”.

Variants of: B7
Conditions: with nt2na_human NOTCH2NLA
With MSCQQNQQQCQPPPKYIPKCPPKCLTPRCPPKCPPKCPPVSSCCSVSSGGCCGSSSGGSCGSSSGGCCSSGGGGCCLSHHRRRRSHCHRPQSSGCCSQPSGGSSCCGGGSGQHSGGCC the “effect of a mutation on the interaction” value was “with no effect”.
